Measured values reported in patent US20240228592A1 (BIO THERA SOLUTIONS, published 2024).

Target: T1, spike-RBD-mFC (sino biologicals) (SARS-COV-2, UniProt P0DTC2 319-541)
T1 construct: domain: RBD; also called spike protein in SARS-COV-2
Experiment: ELISA, spike-RBD-mFC coated, anti-human kappa light chain-peroxidase detection

B1: antibody 9 (antibody, V domains shown)
VH: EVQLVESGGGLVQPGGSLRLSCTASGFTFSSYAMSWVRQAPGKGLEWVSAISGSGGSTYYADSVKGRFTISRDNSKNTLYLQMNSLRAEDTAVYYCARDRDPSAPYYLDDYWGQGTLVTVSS
VL: DIQMTQSPSSLSASVGDRVTITCRASQGISSYLAWYQQKPGKAPKLLIYAASSLQSGVPSRFSGSGSGTDFTLTISSLQPEDFATYYCQQHYTTPPTFGQGTKVEIKR
- EC50: 2.76 nM
